Values of other authors, collected in publication PMC2739727.

Key:
[1] = molecular target: IL-13Rα1/IL-4Rα (Homo sapiens) (UniProt P78552)
IL-13Rα2 (Homo sapiens) = IL-13Rα2 (Homo sapiens) (UniProt Q14627)
Sequence of UniProt Q14627 (Q14627 27-343): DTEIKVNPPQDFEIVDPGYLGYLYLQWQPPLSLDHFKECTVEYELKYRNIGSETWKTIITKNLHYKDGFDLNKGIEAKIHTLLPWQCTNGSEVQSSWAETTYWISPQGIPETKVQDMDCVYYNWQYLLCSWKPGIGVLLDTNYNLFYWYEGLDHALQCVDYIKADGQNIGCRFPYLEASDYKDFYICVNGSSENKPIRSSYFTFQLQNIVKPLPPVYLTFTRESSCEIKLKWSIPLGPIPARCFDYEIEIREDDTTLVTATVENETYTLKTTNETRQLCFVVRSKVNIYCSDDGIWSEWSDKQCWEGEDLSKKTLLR

Sequence of UniProt P78552 (P78552 22-343, chain 1 of 2): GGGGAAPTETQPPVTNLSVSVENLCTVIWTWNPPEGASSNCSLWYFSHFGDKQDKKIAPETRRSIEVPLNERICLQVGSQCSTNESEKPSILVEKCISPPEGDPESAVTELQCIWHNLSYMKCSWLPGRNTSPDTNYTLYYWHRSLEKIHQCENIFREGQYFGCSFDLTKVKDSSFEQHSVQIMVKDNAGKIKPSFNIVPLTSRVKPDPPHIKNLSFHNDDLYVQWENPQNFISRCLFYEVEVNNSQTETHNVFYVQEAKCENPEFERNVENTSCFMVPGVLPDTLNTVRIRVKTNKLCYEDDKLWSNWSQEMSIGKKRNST
Sequence of UniProt P78552 (P24394 26-232, chain 2 of 2, further chain): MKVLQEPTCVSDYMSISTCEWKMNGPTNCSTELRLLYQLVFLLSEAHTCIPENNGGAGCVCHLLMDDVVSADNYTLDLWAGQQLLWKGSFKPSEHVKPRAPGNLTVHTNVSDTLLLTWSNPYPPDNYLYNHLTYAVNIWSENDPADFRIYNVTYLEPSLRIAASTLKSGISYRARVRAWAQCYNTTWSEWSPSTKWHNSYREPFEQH

Kd [1]: 0.2 nM
Kd (IL-13Rα2 (Homo sapiens)): 0.2 nM
Substance: IL-13 (from UniProt P35225)
